Experimental data from US20130210108.

Biological target: malate dehydrogenase (MDH)

B1: PA3529 protein (2-Cys peroxiredoxin of Pseudomonas aeruginosa PAO1), His-tagged, non-irradiated or gamma/UV-irradiated (protein)
chain: MSVLVGKKAPDFNVAAVLGNGEIVESFTLSEAIKGKYGLVFFYPLDFTFVCPSELIALDHRIPEFQARNVEVIGVSIDSHFTHNAWRNTPVDKGGIGAVKYTLAADTKHEIAKAYDVESDGGVAFRGAFLIDKEGVVRSQIVNDLPLGRNMDELLRLVDALQFHEEHGEVCPANWKKGDKGMTASPEGVAKYLAENASKL
- MDH aggregation at 43 C for 15 minutes, PaPrx:MDH 1:1 (molecular chaperone activity after UV irradiation): as the UV irradiation time increased, the molecular chaperone activity increased regularly
- chaperone activity against the non-irradiated group: Chaperone activity of Prx protein was three-fold increased by gamma irradiation at 15˜30 kGy, compared with the non-irradiated group
- increase rate of OD650nm of MDH heated at 43 C (holdase chaperone activity): the lowest OD was observed at 30 kGy, indicating that chaperone activity was highest at 30 kGy

B2: PP1084 protein (3-Cys peroxiredoxin of Pseudomonas putida KT2440), His-tagged, non-irradiated or gamma-irradiated (protein)
chain: MSVLVGKKAPDFTVPAVLGNGEIVDSFNLASAIKGKYGLVFFYPLDFTFVCPSELIALDNRIPDFQARNVEVIGVSIDSHFTHNAWRNTPVNNGGIGQVKYTLAADMTHEICKAYDVESEGGVAFRGAFLIDTNGVVRSQIVNDLPLGRNMDELLRLVDALQFHEEHGEVCPANWKKGDKGMNASPEGVAAYLSENAGKL
- chaperone activity against the non-irradiated group: Chaperone activity of Prx protein was three-fold increased by gamma irradiation at 15˜30 kGy, compared with the non-irradiated group
- increase rate of OD650nm of MDH heated at 43 C (holdase chaperone activity): the lowest OD was observed at 30 kGy, indicating that chaperone activity was highest at 30 kGy
